Measured values taken from publication PMC12053622 (2025).

T1: hMCT1/hBSG (Homo sapiens)
T1 chain 1: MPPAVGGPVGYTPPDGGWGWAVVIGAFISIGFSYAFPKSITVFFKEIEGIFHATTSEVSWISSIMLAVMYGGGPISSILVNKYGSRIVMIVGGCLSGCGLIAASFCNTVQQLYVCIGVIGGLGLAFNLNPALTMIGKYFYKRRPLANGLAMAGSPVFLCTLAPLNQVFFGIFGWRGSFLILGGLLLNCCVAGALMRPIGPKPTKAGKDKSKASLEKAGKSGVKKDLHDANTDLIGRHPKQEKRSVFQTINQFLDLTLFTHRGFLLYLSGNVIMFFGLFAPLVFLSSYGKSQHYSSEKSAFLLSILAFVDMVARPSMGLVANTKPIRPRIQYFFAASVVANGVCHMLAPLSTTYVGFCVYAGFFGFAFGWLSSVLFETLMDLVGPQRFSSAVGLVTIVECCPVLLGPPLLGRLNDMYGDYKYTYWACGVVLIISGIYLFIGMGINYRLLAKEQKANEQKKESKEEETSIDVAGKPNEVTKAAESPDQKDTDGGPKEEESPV
T1 chain 2: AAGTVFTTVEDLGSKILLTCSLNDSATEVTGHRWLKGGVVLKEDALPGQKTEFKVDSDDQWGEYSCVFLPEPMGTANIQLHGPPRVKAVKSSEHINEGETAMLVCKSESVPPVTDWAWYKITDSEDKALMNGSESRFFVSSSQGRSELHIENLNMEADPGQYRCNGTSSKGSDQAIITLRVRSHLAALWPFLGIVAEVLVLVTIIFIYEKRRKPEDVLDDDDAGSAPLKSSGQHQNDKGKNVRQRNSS

T2: WT mMCT1/mBSG complex (mouse, UniProt P53986 1-493)
T2 chain 1: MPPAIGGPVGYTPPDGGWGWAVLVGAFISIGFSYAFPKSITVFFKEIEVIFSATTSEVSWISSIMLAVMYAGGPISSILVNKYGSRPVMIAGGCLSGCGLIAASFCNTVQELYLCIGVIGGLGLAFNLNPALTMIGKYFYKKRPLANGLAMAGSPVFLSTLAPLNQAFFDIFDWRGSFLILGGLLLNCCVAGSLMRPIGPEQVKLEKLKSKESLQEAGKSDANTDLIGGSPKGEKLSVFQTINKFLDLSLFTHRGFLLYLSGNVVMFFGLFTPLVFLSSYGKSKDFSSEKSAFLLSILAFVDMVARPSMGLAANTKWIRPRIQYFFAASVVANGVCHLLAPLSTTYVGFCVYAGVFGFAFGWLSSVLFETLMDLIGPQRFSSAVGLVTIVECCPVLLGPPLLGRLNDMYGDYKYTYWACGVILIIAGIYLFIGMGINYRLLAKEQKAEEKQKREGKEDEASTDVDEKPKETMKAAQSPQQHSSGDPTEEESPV
T2 chain 2: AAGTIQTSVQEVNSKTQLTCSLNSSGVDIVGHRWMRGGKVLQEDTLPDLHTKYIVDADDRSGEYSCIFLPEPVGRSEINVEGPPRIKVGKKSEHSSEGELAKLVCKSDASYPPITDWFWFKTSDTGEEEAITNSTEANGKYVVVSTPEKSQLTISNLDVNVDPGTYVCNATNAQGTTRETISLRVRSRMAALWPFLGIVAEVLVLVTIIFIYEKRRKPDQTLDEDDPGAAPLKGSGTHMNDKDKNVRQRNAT

B1: 6E7F1 monoclonal antibody (antibody, V domains shown)
VH: QVQLQQPGAELVKPGASVNLSCKASGYTFTNYWIHWVKQRPGQGLEWIGMIHPNSGTINYNEKFKTKATLTVDKSSSTAYMQLSSLTSEDSAVYYCARVGTGSLDYWGQGTSVTVSS
VL: DIVMTQSPATLSVTPGDRVSLSCRASQSISDYLHWYQQKSHESPRLLIKYVSQSISGIPSRFSGSGSGSYFTLSIDSVEPEDVGVYYCQNGHRFPYTFGGGTKLEIK
modifications: Full-length hMCT1 with hBSG isoform 2 (limits not given; signal peptide 1-21 removed by convention); Ig-domain disulfides; N-glycosylated BSG if expressed in mammalian cells
B2: 6E7F1 monoclonal antibody (antibody, V domains shown)
VH: QVQLQQPGAELVKPGASVNLSCKASGYTFTNYWIHWVKQRPGQGLEWIGMIHPNSGTINYNEKFKTKATLTVDKSSSTAYMQLSSLTSEDSAVYYCARVGTGSLDYWGQGTSVTVSS
VL: DIVMTQSPATLSVTPGDRVSLSCRASQSISDYLHWYQQKSHESPRLLIKYVSQSISGIPSRFSGSGSGSYFTLSIDSVEPEDVGVYYCQNGHRFPYTFGGGTKLEIK

How the values were obtained:
Assay in all cases: BLI
hMCT1/hBSG [1] = biological target: T1, hMCT1/hBSG
hMCT1/hBSG [2] = biological target: T1, hMCT1/hBSG
WT mMCT1/mBSG complex = biological target: T2, WT mMCT1/mBSG complex

Binder | Kd (hMCT1/hBSG [1]) [nM] | koff (hMCT1/hBSG [2]) [s⁻¹] | Kd (WT mMCT1/mBSG complex) [nM]
B1 | 4.41 | 0.000183 | –
B2 | – | – | 0.421
